Reference: doi:10.1101/2023.01.16.523357

Columns and labels:
[1] = biological target: Mycobacterium smegmatis Dps2 (MsDps2), wild type (Mycobacterium smegmatis); assay: SEC
[2] = biological target: ΔN15MsDps2 (MsDps2 with the first 15 N-terminal amino acids deleted) (Mycobacterium smegmatis); assay: negative-stain electron microscopy

Substance | stoichiometry N [1] | stoichiometry N [2]
Mycobacterium smegmatis Dps2 (MsDps2), wild type (natural protein) | 12 | 
ΔN15MsDps2 (MsDps2 with the first 15 N-terminal amino acids deleted) (domain or fragment) |  | 12
